Test results published in PMC10539383, “Recognition and cleavage mechanism of intron-containing pre-tRNA by human TSEN endonuclease complex”.

Target: T1, TSEN2;TSEN34;TSEN15;TSEN54 (Homo sapiens;Homo sapiens;Homo …, UniProt Q8NCE0;Q9BSV6;Q8WW01;Q7Z6J9 1-465;1-310;1-171;1-526, |||)
T1 sequence 1: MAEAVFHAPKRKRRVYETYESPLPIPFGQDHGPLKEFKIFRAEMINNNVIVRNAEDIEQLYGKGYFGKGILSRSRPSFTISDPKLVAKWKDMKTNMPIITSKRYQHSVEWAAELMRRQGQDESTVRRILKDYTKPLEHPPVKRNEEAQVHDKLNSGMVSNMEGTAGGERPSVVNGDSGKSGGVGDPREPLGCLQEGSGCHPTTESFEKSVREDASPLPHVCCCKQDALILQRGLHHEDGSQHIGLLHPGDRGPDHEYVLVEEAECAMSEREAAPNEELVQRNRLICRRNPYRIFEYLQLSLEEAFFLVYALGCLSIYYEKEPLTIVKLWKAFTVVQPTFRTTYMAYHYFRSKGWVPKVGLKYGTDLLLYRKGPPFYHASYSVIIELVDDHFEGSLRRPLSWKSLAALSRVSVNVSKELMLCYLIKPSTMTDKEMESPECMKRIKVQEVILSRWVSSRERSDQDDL
T1 sequence 2: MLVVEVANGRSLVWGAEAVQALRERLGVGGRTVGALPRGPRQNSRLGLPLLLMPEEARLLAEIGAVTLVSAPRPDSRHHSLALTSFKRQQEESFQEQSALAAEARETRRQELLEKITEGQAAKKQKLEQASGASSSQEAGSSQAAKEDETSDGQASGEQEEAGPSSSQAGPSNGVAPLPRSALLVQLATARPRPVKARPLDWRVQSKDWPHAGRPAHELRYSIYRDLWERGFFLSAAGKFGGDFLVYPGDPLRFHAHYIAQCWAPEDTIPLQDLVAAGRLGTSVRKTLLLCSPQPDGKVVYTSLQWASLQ
T1 sequence 3: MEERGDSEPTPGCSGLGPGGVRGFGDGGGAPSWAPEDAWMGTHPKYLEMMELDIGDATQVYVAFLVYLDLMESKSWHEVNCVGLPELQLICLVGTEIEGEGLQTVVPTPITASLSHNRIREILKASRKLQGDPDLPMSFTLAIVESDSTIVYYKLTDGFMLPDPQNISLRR
T1 sequence 4: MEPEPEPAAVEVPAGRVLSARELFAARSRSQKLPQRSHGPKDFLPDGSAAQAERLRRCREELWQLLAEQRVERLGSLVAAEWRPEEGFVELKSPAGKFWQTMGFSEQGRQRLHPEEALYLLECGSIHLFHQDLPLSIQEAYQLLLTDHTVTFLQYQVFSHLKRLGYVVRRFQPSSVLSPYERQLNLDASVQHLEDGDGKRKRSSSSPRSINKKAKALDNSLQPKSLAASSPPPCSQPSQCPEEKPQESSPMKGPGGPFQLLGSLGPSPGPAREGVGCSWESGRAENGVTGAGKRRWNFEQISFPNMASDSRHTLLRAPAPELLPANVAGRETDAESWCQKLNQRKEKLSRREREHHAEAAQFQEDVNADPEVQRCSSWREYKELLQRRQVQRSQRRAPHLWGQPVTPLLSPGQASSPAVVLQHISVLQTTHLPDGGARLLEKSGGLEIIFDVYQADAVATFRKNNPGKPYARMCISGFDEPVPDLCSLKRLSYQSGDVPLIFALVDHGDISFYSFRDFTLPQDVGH
Assay: cryo-EM structure (3.2 A); wild-type active complex; Protein (EM) buffer: 20 mM HEPES pH 8.0, 150 mM NaCl, 1 mM MgCl2, 5 mM DTT; complex formation conditions and temperature not in the material
Details: protein: recombinant;recombinant;recombinant;recombinant; tags: none stated;none stated;N-terminal 6xHis;N-terminal GST removed by TEV; copies: 1;1;1;1; pre-tRNA fold, single strand with anticodon-intron stem and 3' bulge

B1: pre-tRNAArgTCT (structured_RNA)
RNA: GGGGGCUCUGUGGCGCAAUGGAUAGCGCAUUGGACUUCUAGUGACGAAUAGAGCAAUUCAAAGGUUGUGGGUUCGAAUCCCACCAGAGUCG
**Q.** Does B1 bind?
**A.** binds
